Measured values published in patent US20230340070A1.

Columns and labels:
[1] = molecular target: anti-TRP-1 antibody (TA99, BioXcell); assay: cell-based or functional assay
[2] = molecular target: anti-CD20 antibody (18B12, Absolute antibody); assay: cell-based or functional assay

Substance	B16-H2B-tdTomato target cell count after 48 hours co-culture with infected CD8+ T cells and anti-TRP-1 antibody (FIG. 8C; sham: around 750 B16 cells) [1] [B16 cells]	killing of B16-H2B-tdTomato target cells by infected CD4+ and CD8+ T cells with anti-TRP-1 antibody, incuCyte target cell numbers after 48 hours; effector : target ratio needed (effector : target ratio (x to 1)) [1]	killing of B16-H2B-tdTomato target cells by infected T cells with anti-TRP-1 antibody, incuCyte; effector : target ratio at which killing was induced (effector : target ratio (x:1)) [1]	A20 B-cell lymphoma cell death by Annexin-V staining in flow cytometry after co-culture with infected CD8+ T cells and anti-CD20 antibody [2] [%]
Alpha-2A-gamma (extracellular, transmembrane and intracellular domains of FcγRI, T2A skipping peptide and FcRγ) (receptor)	575	> 8	–	–
Alpha-gamma-2A-gamma (extracellular and transmembrane domains of FcγRI fused to the intracellular domain of FcRγ, T2A skipping peptide and FcRγ)	–	–	2	–
Alpha-gamma-2A-gamma (extracellular and transmembrane domains of FcγRI fused to the intracellular domain of FcRγ, T2A skipping peptide and FcRγ) (receptor)	460	–	–	20
